Data taken from patent publication CN118307667A.

Target: RSV A/B株的融合蛋白的融合前和融合后构象
Assay: ELISA, F protein coated 50 ng/well, anti-human IgG-Fc-HRP

B1: RSFP2B6抗体 (antibody, V domains shown)
VH: QVQLVQSGGALAQPGRSLRLSCTTSGFTFGDYAVNWVRQAPGKGLEWVGIVRTEPYGGTTEYSASVKGRFIISRDDSKGIAYLQMNSLKTEDTGVYYCSQPILNVDVWGQGTTVTVSS
VL: NFMLTQPHSVSESPGKTVTISCTRSSGSFGSDYVQWYQQRPGSAPNTVIYENNQRPSGVPDRFSGSIDSSSNSASLTISGLKTEDEADYYCQSYDDNTPWVFGGGTELTVL
  EC50: 0.292 to 0.603 µg/mL
